Laboratory results reported in the supplement of paper PMC5998384.

Legend:
HeLa Kyoto [1] = test: solubility change mitosis vs G1/S (difference of NP-40 vs SDS log2 ratios) (log2 ratio difference); higher = more soluble in mitosis
HeLa Kyoto [2] = test: melting temperature (median over replicates), in situ; higher = more thermally stable
HeLa Kyoto [3] = test: thermal stability score vs G1/S (z-score of summed log2 fold changes over temperatures); higher = more thermally stable than in G1/S
HeLa Kyoto [4] = test: solubility in G1/S (NP-40 vs SDS abundance) (log2 ratio); higher = more soluble; conditions: cell cycle stage: G1/S
[5] = cell cycle stage: early G1 (4.5 h after nocodazole release)
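Throughout, for melting temperature (median over replicates), in situ: HeLa Kyoto cells synchronized by double thymidine or nocodazole block, proteins quantified by TMT10plex mass spectrometry, three independent biological replicates.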
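Throughout, for solubility change mitosis vs G1/S (difference of NP-40 vs SDS log2 ratios): synchronized HeLa Kyoto cells (double thymidine block for G1/S, nocodazole release for mitosis), protein amounts in NP-40 versus SDS lysates quantified by mass spectrometry, three biological replicates.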
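Throughout, for solubility in G1/S (NP-40 vs SDS abundance): HeLa Kyoto cells arrested at G1/S by double thymidine block, proteins quantified by TMT10plex mass spectrometry in mild NP-40 versus SDS extracts, three biological replicates.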
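Throughout, for thermal stability score vs G1/S (z-score of summed log2 fold changes over temperatures): synchronized HeLa Kyoto cells, proteins quantified by TMT10plex mass spectrometry, three biological replicates, mitosis taken 0.5 h after nocodazole release, G1/S directly after double thymidine block.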

Sequence | solubility change mitosis (log2) (HeLa Kyoto [1]) | melting temperature (HeLa Kyoto [2]; cell cycle stage: G1/S) [°C] | melting temperature (HeLa Kyoto [2]; cell cycle stage: mitosis) [°C] | thermal stability score (HeLa Kyoto [3]; [5]) | thermal stability score (HeLa Kyoto [3]; cell cycle stage: mitosis) | solubility in G1/S (log2) (HeLa Kyoto [4])
MESESESGAAADTPPLETLSFHGDEEIIEVVELDPGPPDPDDLAQEMEDVDFEEEEEEEGNEEGWVLEPQEGVVGSMEGPDDSEVTFALHSASVFCVSLDPKTNTLAVTGGEDDKAFVWRLSDGELLFECAGHKDSVTCAGFSHDSTLVATGDMSGLLKVWQVDTKEEVWSFEAGDLEWMEWHPRAPVLLAGTADGNTWMWKVPNGDCKTFQGPNCPATCGRVLPDGKRAVVGYEDGTIRIWDLKQGSPIHVLKGTEGHQGPLTCVAANQDGSLILTGSVDCQAKLVSATTGKVVGVFRPETVASQPSLGEGEESESNSVESLGFCSVMPLAAVGYLDGTLAIYDLATQTLRHQCQHQSGIVQLLWEAGTAVVYTCSLDGIVRLWDARTGRLLTDYRGHTAEILDFALSKDASLVVTTSGDHKAKVFCVQRPDR [AAMP] | -0.112 | 51.3 | 51.6 | -1.15 | -3.66 | -0.15
MESGFTSKDTYLSHFNPRDYLEKYYKFGSRHSAESQILKHLLKNLFKIFCLDGVKGDLLIDIGSGPTIYQLLSACESFKEIVVTDYSDQNLQELEKWLKKEPEAFDWSPVVTYVCDLEGNRVKGPEKEEKLRQAVKQVLKCDVTQSQPLGAVPLPPADCVLSTLCLDAACPDLPTYCRALRNLGSLLKPGGFLVIMDALKSSYYMIGEQKFSSLPLGREAVEAAVKEAGYTIEWFEVISQSYSSTMANNEGLFSLVARKLSRPL [NNMT] | -0.0166 | 53.4 | 53.7 | 3.88 | 4.37 | 0.584
MESGQPARRIAMAPLLEYERQLVLELLDTDGLVVCARGLGADRLLYHFLQLHCHPACLVLVLNTQPAEEEYFINQLKIEGVEHLPRRVTNEITSNSRYEVYTQGGVIFATSRILVVDFLTDRIPSDLITGILVYRAHRIIESCQEAFILRLFRQKNKRGFIKAFTDNAVAFDTGFCHVERVMRNLFVRKLYLWPRFHVAVNSFLEQHKPEVVEIHVSMTPTMLAIQTAILDILNACLKELKCHNPSLEVEDLSLENAIGKPFDKTIRHYLDPLWHQLGAKTKSLVQDLKILRTLLQYLSQYDCVTFLNLLESLRATEKAFGQNSGWLFLDSSTSMFINARARVYHLPDAKMSKKEKISEKMEIKEGEETKKELVLESNPKWEALTEVLKEIEAENKESEALGGPGQVLICASDDRTCSQLRDYITLGAEAFLLRLYRKTFEKDSKAEEVWMKFRKEDSSKRIRKSHKRPKDPQNKERASTKERTLKKKKRKLTLTQMVGKPEELEEEGDVEEGYRREISSSPESCPEEIKHEEFDVNLSSDAAFGILKEPLTIIHPLLGCSDPYALTRVLHEVEPRYVVLYDAELTFVRQLEIYRASRPGKPLRVYFLIYGGSTEEQRYLTALRKEKEAFEKLIREKASMVVPEEREGRDETNLDLVRGTASADVSTDTRKAGGQEQNGTQQSIVVDMREFRSELPSLIHRRGIDIEPVTLEVGDYILTPEMCVERKSISDLIGSLNNGRLYSQCISMSRYYKRPVLLIEFDPSKPFSLTSRGALFQEISSNDISSKLTLLTLHFPRLRILWCPSPHATAELFEELKQSKPQPDAATALAITADSETLPESEKYNPGPQDFLLKMPGVNAKNCRSLMHHVKNIAELAALSQDELTSILGNAANAKQLYDFIHTSFAEVVSKGKGKK [ERCC4] | -0.274 | 49.6 | 50.4 | 0.278 | 0.608 | -0.215
MESMFSSPAEAALQRETGVPGLLTPLPDLDGVYELERVAGFVRDLGCERVALQFPDQLLGDAVAVAARLEETTGSKMFILGDTAYGSCCVDVLGAEQAGAQALIHFGPACLSPPARPLPVAFVLRQRSVALELCVKAFEAQNPDPKAPVVLLSEPACAHALEALATLLRPRYLDLLVSSPAFPQPVGSLSPEPMPLERFGRRFPLAPGRRLEEYGAFYVGGSKASPDPDLDPDLSRLLLGWAPGQPFSSCCPDTGKTQDEGARAGRLRARRRYLVERARDARVVGLLAGTLGVAQHREALAHLRNLTQAAGKRSYVLALGRPTPAKLANFPEVDVFVLLACPLGALAPQLSGSFFQPILAPCELEAACNPAWPPPGLAPHLTHYADLLPGSPFHVALPPPESELWETPDVSLITGDLRPPPAWKSSNDHGSLALTPRPQLELAESSPAASFLSSRSWQGLEPRLGQTPVTEAVSGRRGIAIAYEDEGSG [DPH2] | -0.0726 | 53.9 | 53.4 | -0.452 | -1.28 | 0.268
MESNKDEAERCISIALKAIQSNQPDRALRFLEKAQRLYPTPRVRALIESLNQKPQTAGDQPPPTDTTHATHRKAGGTDAPSANGEAGGESTKGYTAEQVAAVKRVKQCKDYYEILGVSRGASDEDLKKAYRRLALKFHPDKNHAPGATEAFKAIGTAYAVLSNPEKRKQYDQFGDDKSQAARHGHGHGDFHRGFEADISPEDLFNMFFGGGFPSSNVHVYSNGRMRYTYQQRQDRRDNQGDGGLGVFVQLMPILILILVSALSQLMVSSPPYSLSPRPSVGHIHRRVTDHLGVVYYVGDTFSEEYTGSSLKTVERNVEDDYIANLRNNCWKEKQQKEGLLYRARYFGDTDMYHRAQKMGTPSCSRLSEVQASLHG [DNAJB12] | -0.00489 | 49.4 | 50.4 | 2.37 | 0.328 | 0.104
MESSRGRPGPETDLLAVAEHQALVFGGGPGRTSSEPPAGLRVSGEEETENVGGANRHPRTSPKTSSCGVVHRPEREALENEPGPQGTLSGAGSRRGAPGAEHEPSLSSRHKNPAPPEGKPSSGRDCRRGGPGGGMDVEQQEEEDNDEEAAAGSRAGRSFSSRLQDSRSLDGLSEACGGAGSSGSAESGAGGGRRATISSPLELEGTVSRHGDLTHFVANNLQLKIRLSGAPPPPPSAPARPCPAPAPTPTPAIPPIDPEVLRDLERLSRELGGRVDRLLRGLGGAVQELTALSVGCIQTYRDAVDSLGEAVDMSIKGMYTLLARCEELERALQPVQGLARQVRDIRRTLEVLEALCK [C17ORF59] | -0.0139 | 53.5 | 53.8 | -2.61 | -1.39 | 0.166
METLESELTCPICLELFEDPLLLPCAHSLCFNCAHRILVSHCATNESVESITAFQCPTCRHVITLSQRGLDGLKRNVTLQNIIDRFQKASVSGPNSPSETRRERAFDANTMTSAEKVLCQFCDQDPAQDAVKTCVTCEVSYCDECLKATHPNKKPFTGHRLIEPIPDSHIRGLMCLEHEDEKVNMYCVTDDQLICALCKLVGRHRDHQVAALSERYDKLKQNLESNLTNLIKRNTELETLLAKLIQTCQHVEVNASRQEAKLTEECDLLIEIIQQRRQIIGTKIKEGKVMRLRKLAQQIANCKQCIERSASLISQAEHSLKENDHARFLQTAKNITERVSMATASSQVLIPEINLNDTFDTFALDFSREKKLLECLDYLTAPNPPTIREELCTASYDTITVHWTSDDEFSVVSYELQYTIFTGQANVVSLCNSADSWMIVPNIKQNHYTVHGLQSGTKYIFMVKAINQAGSRSSEPGKLKTNSQPFKLDPKSAHRKLKVSHDNLTVERDESSSKKSHTPERFTSQGSYGVAGNVFIDSGRHYWEVVISGSTWYAIGLAYKSAPKHEWIGKNSASWALCRCNNNWVVRHNSKEIPIEPAPHLRRVGILLDYDNGSIAFYDALNSIHLYTFDVAFAQPVCPTFTVWNKCLTIITGLPIPDHLDCTEQLP [MID1] | -0.0991 | 50.6 | 50.6 | -0.257 | -0.0362 | -0.197
METPSQRRATRSGAQASSTPLSPTRITRLQEKEDLQELNDRLAVYIDRVRSLETENAGLRLRITESEEVVSREVSGIKAAYEAELGDARKTLDSVAKERARLQLELSKVREEFKELKARNTKKEGDLIAAQARLKDLEALLNSKEAALSTALSEKRTLEGELHDLRGQVAKLEAALGEAKKQLQDEMLRRVDAENRLQTMKEELDFQKNIYSEELRETKRRHETRLVEIDNGKQREFESRLADALQELRAQHEDQVEQYKKELEKTYSAKLDNARQSAERNSNLVGAAHEELQQSRIRIDSLSAQLSQLQKQLAAKEAKLRDLEDSLARERDTSRRLLAEKEREMAEMRARMQQQLDEYQELLDIKLALDMEIHAYRKLLEGEEERLRLSPSPTSQRSRGRASSHSSQTQGGGSVTKKRKLESTESRSSFSQHARTSGRVAVEEVDEEGKFVRLRNKSNEDQSMGNWQIKRQNGDDPLLTYRFPPKFTLKAGQVVTIWAAGAGATHSPPTDLVWKAQNTWGCGNSLRTALINSTGEEVAMRKLVRSVTVVEDDEDEDGDDLLHHHHGSHCSSSGDPAEYNLRSRTVLCGTCGQPADKASASGSGAQVGGPISSGSSASSVTVTRSYRSVGGSGGGSFGDNLVTRSYLLGNSSPRTQSPQNCSIM [LMNA] | 1.64 | 54.8 | 52.9 | -9.6 | -5.85 | -1.05
MEVAVEKAVAAAAAASAAASGGPSAAPSGENEAESRQGPDSERGGEAARLNLLDTCAVCHQNIQSRAPKLLPCLHSFCQRCLPAPQRYLMLPAPMLGSAETPPPVPAPGSPVSGSSPFATQVGVIRCPVCSQECAERHIIDNFFVKDTTEVPSSTVEKSNQVCTSCEDNAEANGFCVECVEWLCKTCIRAHQRVKFTKDHTVRQKEEVSPEAVGVTSQRPVFCPFHKKEQLKLYCETCDKLTCRDCQLLEHKEHRYQFIEEAFQNQKVIIDTLITKLMEKTKYIKFTGNQIQNRIIEVNQNQKQVEQDIKVAIFTLMVEINKKGKALLHQLESLAKDHRMKLMQQQQEVAGLSKQLEHVMHFSKWAVSSGSSTALLYSKRLITYRLRHLLRARCDASPVTNNTIQFHCDPSFWAQNIINLGSLVIEDKESQPQMPKQNPVVEQNSQPPSGLSSNQLSKFPTQISLAQLRLQHMQQQVMAQRQQVQRRPAPVGLPNPRMQGPIQQPSISHQQPPPRLINFQNHSPKPNGPVLPPHPQQLRYPPNQNIPRQAIKPNPLQMAFLAQQAIKQWQISSGQGTPSTTNSTSSTPSSPTITSAAGYDGKAFGSPMIDLSSPVGGSYNLPSLPDIDCSSTIMLDNIVRKDTNIDHGQPRPPSNRTVQSPNSSVPSPGLAGPVTMTSVHPPIRSPSASSVGSRGSSGSSSKPAGADSTHKVPVVMLEPIRIKQENSGPPENYDFPVVIVKQESDEESRPQNANYPRSILTSLLLNSSQSSTSEETVLRSDAPDSTGDQPGLHQDNSSNGKSEWLDPSQKSPLHVGETRKEDDPNEDWCAVCQNGGELLCCEKCPKVFHLSCHVPTLTNFPSGEWICTFCRDLSKPEVEYDCDAPSHNSEKKKTEGLVKLTPIDKRKCERLLLFLYCHEMSLAFQDPVPLTVPDYYKIIKNPMDLSTIKKRLQEDYSMYSKPEDFVADFRLIFQNCAEFNEPDSEVANAGIKLENYFEELLKNLYPEKRFPKPEFRNESEDNKFSDDSDDDFVQPRKKRLKSIEERQLLK [TRIM24] | -0.117 | 48.8 | 50.2 | 2.07 | 4.99 | -0.0643
MEVKRLKVTELRSELQRRGLDSRGLKVDLAQRLQEALDAEMLEDEAGGGGAGPGGACKAEPRPVAASGGGPGGDEEEDEEEEEEDEEALLEDEDEEPPPAQALGQAAQPPPEPPEAAAMEAAAEPDASEKPAEATAGSGGVNGGEEQGLGKREEDEPEERSGDETPGSEVPGDKAAEEQGDDQDSEKSKPAGSDGERRGVKRQRDEKDEHGRAYYEFREEAYHSRSKSPLPPEEEAKDEEEDQTLVNLDTYTSDLHFQVSKDRYGGQPLFSEKFPTLWSGARSTYGVTKGKVCFEAKVTQNLPMKEGCTEVSLLRVGWSVDFSRPQLGEDEFSYGFDGRGLKAENGQFEEFGQTFGENDVIGCFANFETEEVELSFSKNGEDLGVAFWISKDSLADRALLPHVLCKNCVVELNFGQKEEPFFPPPEEFVFIHAVPVEERVRTAVPPKTIEECEVILMVGLPGSGKTQWALKYAKENPEKRYNVLGAETVLNQMRMKGLEEPEMDPKSRDLLVQQASQCLSKLVQIASRTKRNFILDQCNVYNSGQRRKLLLFKTFSRKVVVVVPNEEDWKKRLELRKEVEGDDVPESIMLEMKANFSLPEKCDYMDEVTYGELEKEEAQPIVTKYKEEARKLLPPSEKRTNRRNNRNKRNRQNRSRGQGYVGGQRRGYDNRAYGQQYWGQPGNRGGYRNFYDRYRGDYDRFYGRDYEYNRYRDYYRQYNRDWQSYYYHHPQDRDRYYRNYYGYQGYR [HNRNPUL2] | 0.258 | 49.2 | 50.1 | 0.965 | 3.42 | -0.462
